Experiments:
Assay in all cases: cell-based or functional assay
[1] = target: Hemagglutinin of influenza virus A/Philippines/01/1982 (H3N2) (Influenza A virus A/Philippines/01/1982 (H3N2))
[2] = target: Hemagglutinin of influenza virus A/Aichi/02/1968-PR8-X31 (H3N2) (Influenza A virus A/Aichi/02/1968-PR8-X31 (H3N2)) (UniProt P03437)
[3] = target: Hemagglutinin of influenza virus A/Shanghai/01/2013-PR8 (H7N9) (Influenza A virus A/Shanghai/01/2013-PR8 (H7N9))

B1: H1H14612N2 (antibody, V domains shown)
VH: EVQLVESGGGLVKPGGSLRLSCAASGFSFSGFSMNWVRQAPGKGLEWVSSISTSGNYMYYADSVKGRFTISRDNAKKSFSLQMNSLRAEDSAIYYCARGGGYNWNLFDYWGQGSLVTVSS
VL: EIVLTQSPGTLSLSPGERATLSCRASQSLNSNYLAWYQQKPGQAPRLLIYGASSRATGIPDRFSGSGSGADFTLTISRLESEDFAVYYCQQYGNSPLTFGGGTKVEIK
IC50 of neutralization, cell viability microneutralization assay on MDCK cells [1]: 37.6 nM
EC50, complement-dependent cytotoxicity of virus-infected MDCK cells [2]: 126 nM
IC50 of neutralization, cell viability microneutralization assay on MDCK cells [2]: 5.7 nM
maximum lysis, complement-dependent cytotoxicity of virus-infected MDCK cells [2]: 86.3%
IC50 of neutralization, cell viability microneutralization assay on MDCK cells [3]: > 6670 nM
